Among the data in paper PMC3438747, “Role of Motif III in Catalysis by Acetyl-CoA Synthetase” (Archaea, 2012) are Ki, stoichiometry N and Km values, retold here.

For data set [1], the target named is T1, acetyl-CoA synthetase (Acs1Mt) (Methanothermobacter thermautotrophicus, UniProt O26319).
T1 construct: gene MTH_217
T1 sequence (O26319 1-558): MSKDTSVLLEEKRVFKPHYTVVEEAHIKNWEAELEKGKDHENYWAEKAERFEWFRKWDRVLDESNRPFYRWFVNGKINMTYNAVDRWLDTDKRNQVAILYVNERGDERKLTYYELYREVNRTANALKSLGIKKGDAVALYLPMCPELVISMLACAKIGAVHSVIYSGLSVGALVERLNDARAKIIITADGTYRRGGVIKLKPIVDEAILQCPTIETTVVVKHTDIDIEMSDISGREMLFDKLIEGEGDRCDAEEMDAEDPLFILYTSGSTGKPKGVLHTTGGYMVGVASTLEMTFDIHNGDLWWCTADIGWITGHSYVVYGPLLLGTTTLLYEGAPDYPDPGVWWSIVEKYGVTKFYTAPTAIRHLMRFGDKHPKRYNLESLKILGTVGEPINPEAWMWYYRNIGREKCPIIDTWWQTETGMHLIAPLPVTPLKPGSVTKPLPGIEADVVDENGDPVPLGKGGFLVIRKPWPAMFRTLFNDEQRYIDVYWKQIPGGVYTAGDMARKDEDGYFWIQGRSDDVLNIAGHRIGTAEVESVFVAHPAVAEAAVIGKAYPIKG
The data set is described as follows: inhibition of purified enzyme, hydroxamate assay. Format: biochemical.

The target in another data set is T2, Acs1Mt (Methanothermobacter thermautotrophicus, UniProt Q2XNL6).
T2 construct: gene acs1; recombinant in E. coli Rosetta Blue (DE3); Q-sepharose and phenyl sepharose purification; dimer; motif III 498-YTAGD-502
Description: hydroxamate assay, reciprocal plot of velocity vs inhibitor. Format: biochemical. The conditions noted are these: all three substrates (acetate, MgATP, CoA) saturating; pH 7.5; 65 °C.

For data set [2], the target named is Acs1Mt Ala500Thr variant (Methanothermobacter thermautotrophicus). Description: SEC; Superose 12 gel filtration column, 50 mM Tris pH 7.5 with 150 mM KCl, calibrated with mass standards; subunit composition (dimer).
Data set [3] concerns the target Acs1Mt Asp502Ala variant (Methanothermobacter thermautotrophicus). The description is as above.
Data set [4] deals with Acs1Mt Asp502Asn variant (Methanothermobacter thermautotrophicus). The data set is described as above.
Data set [5] deals with Acs1Mt Asp502Glu variant (Methanothermobacter thermautotrophicus). The data set is described as above.
Data set [6] addresses Acs1Mt Gly501Ala variant (Methanothermobacter thermautotrophicus). Described as above.
For data set [7], the target named is Acs1Mt Thr499Ala variant (Methanothermobacter thermautotrophicus). The data set is described as above.
Data set [8] concerns the target Acs1Mt Tyr498Ala variant (Methanothermobacter thermautotrophicus). The data set is described as above.
The target of data set [9] is Acs1Mt Tyr498Phe variant (Methanothermobacter thermautotrophicus). The data set is described as above.
The target in data set [10] is Methanothermobacter thermautotrophicus Acs1 (AMP-forming acetyl-CoA synthetase), unaltered (Methanothermobacter thermautotrophicus). The data set is described as above.
Substrate in the data set “purified protein”: CC(=O)O
The data set is described as follows: purified protein. The note with it: Mg2+.

Substrate in data set [11]: CC(C)(COP(=O)(O)OP(=O)(O)OC[C@H]1O[C@@H](n2cnc3c(N)ncnc32)[C@H](O)[C@@H]1OP(=O)(O)O)[C@@H](O)C(=O)NCCC(=O)NCCS
Description: Michaelis-Menten kinetics of purified recombinant enzyme, hydroxamate assay (Km). It counts as biochemical, Methanothermobacter thermautotrophicus. The conditions noted are these: Mg2+.

Substrate in data set [12]: Nc1ncnc2c1ncn2[C@@H]1O[C@H](COP(=O)(O)OP(=O)(O)OP(=O)(O)O)[C@@H](O)[C@H]1O
The data set is described as above. Format: biochemical, Methanothermobacter thermautotrophicus. The note with it: Mg2+ active site; Asp502 interacts with the OH groups of the ribose moiety (model).

Usually Ki stands for a dissociation constant, usually derived from enzyme kinetics or from competition with a known ligand. Higher therefore signals lower affinity. The stoichiometry N is the number of molecules, sites or subunits per partner or assembly. The term Km denotes the concentration of substrate that gives half-maximal velocity.

T2 sequence (Q2XNL6 1-634): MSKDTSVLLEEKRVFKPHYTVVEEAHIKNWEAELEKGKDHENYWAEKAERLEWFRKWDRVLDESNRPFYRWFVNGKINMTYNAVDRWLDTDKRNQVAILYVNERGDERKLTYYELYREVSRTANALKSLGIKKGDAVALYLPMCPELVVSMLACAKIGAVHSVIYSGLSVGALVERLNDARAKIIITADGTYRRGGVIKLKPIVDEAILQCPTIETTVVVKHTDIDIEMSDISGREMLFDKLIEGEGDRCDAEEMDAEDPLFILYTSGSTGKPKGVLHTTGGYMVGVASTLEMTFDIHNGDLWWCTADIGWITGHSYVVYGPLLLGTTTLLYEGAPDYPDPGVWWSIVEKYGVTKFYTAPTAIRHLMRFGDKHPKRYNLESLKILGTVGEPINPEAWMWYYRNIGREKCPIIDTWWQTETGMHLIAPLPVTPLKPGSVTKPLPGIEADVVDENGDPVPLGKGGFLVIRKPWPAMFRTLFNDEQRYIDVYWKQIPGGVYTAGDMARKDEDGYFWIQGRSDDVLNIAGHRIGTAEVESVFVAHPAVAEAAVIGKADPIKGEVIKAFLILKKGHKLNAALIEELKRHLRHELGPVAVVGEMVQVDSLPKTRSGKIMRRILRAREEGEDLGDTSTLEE

Molecule `O=C[C@H](O)[C@H](O)[C@H](O)CO` [ribose] yielded a Ki in data set [1] of 53 mM.
As to `OC1OC[C@@H](O)[C@@H](O)[C@H]1O` (some centres unmarked) [ribose], at Acs1Mt, the Ki turned out to be 53 mM.
In turn, Acs1Mt Ala500Thr variant (enzyme) returned a stoichiometry N in data set [2] of 2.
In [3], Acs1Mt Asp502Ala variant (enzyme) came in with a stoichiometry N of 2.
In turn, Acs1Mt Asp502Asn variant (enzyme) displayed a stoichiometry N in data set [4] of 2.
For the molecule Acs1Mt Asp502Glu variant (enzyme), in data set [5], the stoichiometry N amounted to 2.
Turning to Acs1Mt Gly501Ala variant (enzyme), the stoichiometry N in data set [6] came out at 2.
Molecule Acs1Mt Thr499Ala variant (enzyme) yielded a stoichiometry N in [7] of 2.
For the molecule Acs1Mt Tyr498Ala variant (enzyme), the stoichiometry N in [8] is 2.
In turn, Acs1Mt Tyr498Phe variant (enzyme) registered a stoichiometry N in data set [9] of 2.
For “Methanothermobacter thermautotrophicus Acs1 (AMP-forming acetyl-CoA synthetase), unaltered (enzyme)”, the stoichiometry N in data set [10] turned out to be 2.

B1: acetyl-CoA synthetase (Acs1Mt) (Methanothermobacter thermautotrophicus str. Delta H) (protein)
chain: T1 sequence (O26319 1-558)
For B1, the Km stood at 3.5 ± 0.1 mM in the data set “purified protein”, 0.19 ± 0.003 mM in data set [11] and 3.3 ± 0.2 mM in data set [12].
